The nanobody polyreactivity screen of Harvey et al. (2022)

Assay: yeast display, Sf9 membrane polyspecificity reagent, FACS + sequencing; frameworks hold sequencing errors
Method in brief: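 Genes from sorted yeast were amplified by colony PCR, read by MiSeq 2 × 250 sequencing and filtered on CDR length. These cells carried a synthetic nanobody library in Saccharomyces cerevisiae BJ5465 and were sorted by FACS into low and high (top ~1%) gates on anti-HA and streptavidin fluorescence. Polyreactivity is labelled according to the gate of origin.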

| Sequence | polyreactivity (PSR sort gate) |
| --- | --- |
| QVQLVESGGGLVQAGGSLRLSCAASGLTVLQNAMGWYRQAPGKEWELVAAINIGTNTYADSVKGRFTSARDNAKNTVYLQMNSLKPEDTAVYYCATVDTVLVRPVGYDYWGQGTQVTVSS | low polyreactivity |
| QDQLVESGGGLVQAGGSLRLSCAASGFMFSYYAMGWYRQAPGKARELVAAMTSNGGITYYADSVKGRITISRDKAKNTVYLQMNSLKPEDTAVYYCNAYYTSTSYDYWGQGTQVTVSS | high polyreactivity |
| QVQLVESGGGLVQAGGSLRLSCAASGFTLQVYDMGWYRQAPGKERELVADISGSGDSTNYADSVKGRFTISRDNAKNTVYLQMNSLKPEDTAVYYCAAEVRGGYYGYDYWGQGTQVTVSS | low polyreactivity |
| QVQLGESGGALVQAGGSLRLSCAASGFTFCPYAMGWYRQAPGKERELDAAISQSGGRTSYADSVKGRFTISRDNAKNTVYLQMNSLKPEDTAVYYCAKRAYGYRSIYRMDYWGQGTLVTVSS | high polyreactivity |
| QVQLVESGGGLVQAGGSLRLSCAASGRTFPPTAMGGYRLAPGKEWELVAAISPSGASTYYADSVKGRFTISRDNAKNTVYLQMNSLKPEDTAVYYCAARRFIASPRYKYDYWGQGTQVTVSS | high polyreactivity |
| QVQLVESGGGLVQAGGSLRLSCAASGRTFSTYAMGWYRQAPGKEREMVAAISSGGGRTYYADSVKGRFTISRDYAKNTVYLQMNSLKPEDTAVYYSAADGYLRSRHGDYWGQGTQVTVSS | low polyreactivity |
| QGQLVESGGGLVQAGGSLRLSCAASGSIFRGYAMGWYRQAPGKERELVAAISWSGGSTYYADSVKGRFTISRDNAKNTVYLQMNSLKPEDTAVYYCAADRDVFGYWYYYWGQGTQVTVSS | high polyreactivity |
| QVHLVESGGGLVQAGGSLRLSCAASGRTFTRYTMGCYRQAPGKESELVAAISRRGGSTYYADSVKGRFTISRHNAKNTVYLQMNSLKPEDTAFYYCNADYVPGRPSFIYDYWGQGTQVTVSS | high polyreactivity |
| QVQLVESGGGLVQAGGSLRLSCAASGRIFRLYALGWDRQAPGKERELVATITSGGTYYADSVKGRFTISRDNAKNTVYLQMNSLKPEDTAVYYCAAHSGSTYKYWGQGTQVTVSS | low polyreactivity |
| QVQLVESGGGLVQAGGSLRLSCAASGSTLNVNAMGWYRQAPGKERELVAAITSGGSTYYADSVKGRFTISRDNAKNTVYLQMNSLKPEDTAVYYCNKRRSWRPTYPFGGSGFYYWGQGTQVTVSS | low polyreactivity |
| QVQLVESGGGLVQAGGSLRLSSAATGYIYSHNAMGWYRQSPGKEREFVAGIDSSGGSTSYADSVKGRFTISRDNAKNTVYLQMNSLKPEDTAVYYCAADRTGSHFDYCGQGTQVTVSS | low polyreactivity |
| QVQLVESGGGLVQAGGSLRLSCAASGRIFTFYARGLDRQAPGKEREMVAAISSGGSTYYADSVKGRFTISRDNAKNTVYLQMNSLKPEDTAVYYCATQGARYYHTYGYWGQGTLVTVSS | low polyreactivity |
| QVQLVESGGGLVQAGGSLRLSCAASGNILFSYAMGWYRQAPRKERELVAAISSSGGSTYYADSVKGRFTISRDNAKNNVYLQMNSLKPEDTAVYYCARYSFYKYDYWGQGTQVTVSS | high polyreactivity |
| QVQLVESGGGLVQAGGSLRLSCAASGRIFYSNAMGWYRQAPGKERELVAAITGSGGRTHYADSVKGRFTISRDNAKNTVYLQMNSLKPEDTAVYYCAKDGYFPEFDYWGQGTKVTVSS | high polyreactivity |
| QVQLVESGGGLVQAGGSLRLSSAASGSIFGDYVMGWYRPAPGKERELVAAINRGGSTYYADSVKGRFTISRDNAKNTVYLQMNSLKPEDTAVYDCAKDYHNYPSFGVDYCGQGTQVTVSS | low polyreactivity |
| QVQLVESGGGLVQAGGILRLSCAASGRIFRGYAMGWYIQAPAKERELVASIDWNGGRTYYADSEKGRFTISRDNAKNTVYLQMNSLKPEDTAVYYCAVLPYRTLYNYYYWGQGTQVTVSS | high polyreactivity |
| QVQLVESGGGLVQAGGRLRLSCAASAFIFVTYAMGCYRQAPGKERELVAAITNSGGTTYYADSVKGRFTISRDNAKNTVYLQMNSLKPEDTAVYYCNTEDFFNVPEMDSWGQGTQVTVSS | low polyreactivity |
| QVQLVESGGGLVQAGGSLRLSCAASGGTFNGNTMGWYRQAPGKERELVAVIDWSGGSTYYADSVKGRFTISRDNAKNTVYLQMNSLKPEDTAVYYYNADSDAQFREPKGLYYWGQGTQVTVSS | low polyreactivity |
| QVQLVESGGGLVQAGGSLRLSCAASGSTFISNDMGWYRQAPGKEREFVAAITASGGSTYYADSVKGRFTISRDYAKNTVYLQMNSLKPEDTAVYYCARVYTFLDVYFRYGYWGQGTQVTVSS | low polyreactivity |
| QVQLVESGGRLVQAGGTLRLSCAASGFIFTPYAMGWYRQAPGKERELVAAITWRGARTYYADSVKGRFTISRDNANNTVYLQMNSLKPEDTAVYYCATTFTGYNKEFGYWGQGTQVTVSS | high polyreactivity |
| QVQLVESGGGLVQAGGSLRLSCAASGSIFVKNAMGWYRQAPGKERELVATISRRGGSTYYADSVKGRFTISRDNAKNTVYLQMNSLKPEDTAVYYCNRLGTTVSLEYYYWGQGTQVTVSS | high polyreactivity |
| HVQRVESAGGLVQAGGSLRLSCADSGLIFRGNAMGWYRQAPGKVRELVATISYSGGSTYYADSVKGRFTISRENAKNTVYLQMNSLKPEDTAVYYCNRDPDPWGFQPDWYYGSYDYWGQGTQVTVSS | low polyreactivity |

| Sequence | polyreactivity (PSR sort gate) |
| --- | --- |
| QVQLVESGGGLVQAGGSLRLRCAATGRTFGWYAMGWYRQAPGKEREFVATITRSGGRTYYADSVKGRFTISRDNAKNTVYFQMNSLKPEDTAVYYCAADTNRYRYSYDYWGQGTQVTVSS | high polyreactivity |
| QVQLVESGGGLVQAGGSLRLSCAASGSIFVTNAMGWYRQAPGKERELVAAISGGADSTYADSVKGRFTISRDNAKNTVYFQMNSLKPEDTAVYYCAAKVRGWHYYYWGQGTQVTVSS | low polyreactivity |
| QVQLQESGGGLVQADGSLRLSCAASGTIFTQSYMGWYRQAPGKEREFVAGISNGTNTNYGDSVKGRFTISRDNAKNTVYLQMNSLKLEDTAVYYCAVKGFYVDVLAYWGQGTHVTVSS | high polyreactivity |
| QVQLVESGGGLVQAGGSLRLSCAASGRIFSANAMGWYRQAPRKERELVAGIDSGGSTNYADSVKGRFTISRDNSKNTVYLQMNSLKPEDTAVYYCNAEDHKYEYDSWGQGTQVTVSS | low polyreactivity |
| QVQLVESGGGLVQAGGSLRLSCAASGSIFISNAMGWYRQAPGKERELVAAISSSGGRTYYADSVKGRFTISRDNAKNTVYLQMNSLKPEDTAVYYCAVRGLYQGRRRYSSEYDYWGQGTQVTVSS | high polyreactivity |
| QVQLVESGGGLVQAGGSLRLSCAASGSTFSSNAMGWYRQAPGNERELVAAISKRGGRTYYADSVKGRFTISRDNAKNTVYLQMNSLKPEDTAVYYCAKDYSSAVDYWGQGTQVTVSS | high polyreactivity |
| QVQLVESGGGLVQAGGSLRLSCAASGRIFWSYAMGWYRQAPGKERELVAAIRSGGTTDYADAVKGRFTISRDNAKYTVYLQMNSLKPEDTADYYCNREYRGAINYIYYYWGQGTQVTVSS | low polyreactivity |
| QVQLVESGGGLVQAGGSLSLICAASGGIIRYKAMGWYRQAPGKERELVAAISSGGNTNYADSVKGRFTISRDNAKNTVNLQMNSLKPEDTAVYYSAKAAPWRVYYHKAYGYDYWGQGPQVTVSS | high polyreactivity |
| QVQLVESGGGLVQAGGSLRLSCAASGSIFFTNAMGWYRQAPGKERELVASITSSGGSTYYADSVKGRFTISRDNAKNTVYLQMNSLKPEDTAVYYCARDRWPFWYSPSGVYRYYYWGQGTQVTVSS | low polyreactivity |
| QVQLVESGGGLVQAGGSLRLSCAASGRIFFDYAMGWYRQAPGKERELVADISYNGGSTNYADSVKGRFTISRDNAKNTLYLQMNSLKPEDTADYYCNRAFVPVYDLDYYWGQGTQVTVSS | low polyreactivity |
| QVQLVESGGGLVQAGGSLRLSCAACGSIFYLNAMGWYRQAPGKERELVAAITNGGSTYADSVKGRFTISRDNAKNTVYLQMNSLKPEDTAVYYCATRSWELGDYWGQGTQVTVSS | low polyreactivity |
| QVQLVESGGGLVQAGGSLRLSCAASGGIFRRYAMVWYRQAPGKERELVAGISYSGGSTYYADSVKGRFTISRDNAKNTVYLQMNSLKPEDTAVDYCATVGYVWYRSVNVWSPMDYWGQGTQVTVSS | high polyreactivity |
| QVQLVESGGGLVQAGGSLRLSCASSGRNFRGYAMGWYRQAPGKEREFVAAITKNGGSTYYADSVKGRFTISRDNAKNTVYLQMNSLKPEDTAVYYCAVRAWDPYTGKSDYWGQGTQVTVSS | low polyreactivity |
| QVQLVESGGGLVQAGGSLRLSCAASGINFPRYMGWYRQAPGKERELVAAIRWSSDDTNYADSVKGRFTISRDNAKNTVYLQMNSLKPEDTAVYYCAADSYYDRTIQFEFSASTYDYWGQGTQVTVSS | low polyreactivity |
| HVQLVESGGRLVQAGGSLRLSSAASGLNFYYYAIGWSRQAPGKERELVAAISRRGGSTYYADSVKGRFTISRDNAKNTVYLQMNSLKPEVTEVYYCAAKSGSFVHGGYQTPVYGSDYWGQGTQVTVSS | high polyreactivity |
| QVQLVESGRGLVQAGGSLRLSCAASGTYGYYAMGWYRQAPGKQRELVAAISGSGGSTYYADSVKGRFTISRDNAKNTVYLQMNSLKPEDTAVYYCAKRRRYGGRWVSGDYWGQGTQVTVSS | high polyreactivity |
| QVQLVESGGGLVQAGGSLRLSCAASGRIFGNNAMGLYRQAPGKERELVAAIRRGGSTYYADSVKGRFTISRDNAKNTVYLQMNSLKPEDTAVYYCAADSSRKHFYWGQGTQVTVSS | high polyreactivity |
| QVQLVESGGGLVQAGGSLRLSCAASGFIFSINAMGWYRQAPGKERELVADIDTGGSTNYADSVKGRFTISRDNAKNTVYLQMNSLKPEDTAVYYCAAQWYQYPSYISYFTSYDYWGQGTQVTVSS | low polyreactivity |
| QVQLVESGGGLVQAGGSLRLSCAASGFIFSANAMGWYRQAPGKERELVAVISWNGDGTYYADSVKGRFTISRDNAKNTVYLQMNSLKAEDTAVYYCAALSYAYRSQSRRYGYRFDYWGQGTQVTVSS | high polyreactivity |
| QVQLVESGGGLVPAGGSLRLSCAASGRTFWIYAMGWYRQAPGKERELVASIRWSTGNTNYADSVKGRFTISRDNAKNTVYLQMNSLLPEDTAVYYCNARRRWRGGPTYIYWGQGTQVTVSS | high polyreactivity |
| QVQLVESGGGFVQAGGSLRLSCAAYGSISVGYTMGWYIQAPGKEREFVAVITGTGGRTRYADSVKGRFTISRDNAKNTVYLQMNSLKPEDTAVYYCAAKIRWRGALYDYWGQGTQVTVSS | high polyreactivity |
